Here are results for one substance from patent publication US20110230416A1.

Assay [1] deals with hLDLR of non-genetically modified human cells (human fibroblasts, HUVEC) (human) (UniProt P01130). As to the kind of experiment: FACS on HUVEC, competition; displaced: bacterial viruses expressing SEQ ID NO: 11.
Assay [2] has the same target. The assay can be described thus: FACS on HUVEC, competition; displaced: bacterial viruses expressing SEQ ID NO: 21.

Sequence of hLDLR of non-genetically modified human cells (human fibroblasts, HUVEC) (human) (P01130 22-860): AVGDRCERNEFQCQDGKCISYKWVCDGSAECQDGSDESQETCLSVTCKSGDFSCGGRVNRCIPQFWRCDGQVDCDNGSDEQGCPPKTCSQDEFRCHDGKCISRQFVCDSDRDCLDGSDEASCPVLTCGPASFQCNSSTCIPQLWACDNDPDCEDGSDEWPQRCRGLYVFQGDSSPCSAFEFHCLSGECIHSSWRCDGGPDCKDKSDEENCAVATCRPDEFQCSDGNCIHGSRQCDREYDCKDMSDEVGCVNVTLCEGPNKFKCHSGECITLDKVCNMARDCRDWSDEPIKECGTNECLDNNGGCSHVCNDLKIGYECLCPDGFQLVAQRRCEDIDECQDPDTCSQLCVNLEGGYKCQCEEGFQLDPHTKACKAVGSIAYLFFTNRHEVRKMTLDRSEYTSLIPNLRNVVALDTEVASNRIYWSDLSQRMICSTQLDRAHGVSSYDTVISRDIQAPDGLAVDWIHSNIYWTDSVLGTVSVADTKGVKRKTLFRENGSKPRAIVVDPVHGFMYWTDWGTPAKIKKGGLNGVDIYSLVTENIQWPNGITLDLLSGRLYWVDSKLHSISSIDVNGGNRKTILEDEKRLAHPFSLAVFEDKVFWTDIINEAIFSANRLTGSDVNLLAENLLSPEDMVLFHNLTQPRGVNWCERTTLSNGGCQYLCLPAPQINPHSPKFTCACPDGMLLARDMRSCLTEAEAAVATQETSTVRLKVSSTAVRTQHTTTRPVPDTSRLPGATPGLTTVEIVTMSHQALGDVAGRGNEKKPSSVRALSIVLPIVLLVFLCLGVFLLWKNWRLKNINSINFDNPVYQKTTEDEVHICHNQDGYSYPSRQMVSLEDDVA

As for LDL, natural ligand of hLDLR, the loss of signal in Q2 on adding LDL is 17% in assay [1] and 85% in assay [2].
